± gives the standard error. Fewer inactive variants are shown than the library holds.
B1: glmS ribozyme (parent)
chain: AUAAAAGCGCCAGAACUACAGAAAUGUAGUUGACGAGGAGGAGGUUUAUCGAAUUUUCGGCGGAUGCCUCCAAA

What was measured:
Settings in all cases: with glucosamine-6-phosphate
glucosamine-6-phosphate [1] = variants of: B1; assay: self-cleavage kobs at 160 uM GlcN6P; higher = faster cleavage; RNA array
In short: (§1)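 Barcoded ribozyme variants on sequenced MiSeq chips were transcribed in situ by E. coli RNA polymerase and followed at 37 °C through a hybridised Cy3 probe. Glucosamine-6-phosphate at 40 μM to 10 mM in HEPES/KCl/Mg(OAc)2 buffer was flowed in, and tiles were imaged over ~14 h. Signals were normalised to baseline and to non-cleaving reference variants, and per-tile medians were fit to one- or two-exponential decays to give kobs. Weighted Michaelis–Menten fits across concentrations gave kcat and KM.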

glucosamine-6-phosphate [2] = variants of: B1; assay: self-cleavage kobs at 640 uM GlcN6P; higher = faster cleavage; RNA array
In short: as §1

glucosamine-6-phosphate [3] = variants of: B1; assay: self-cleavage kobs at 2500 uM GlcN6P; higher = faster cleavage; RNA array
In short: as §1

glucosamine-6-phosphate [4] = variants of: B1; assay: self-cleavage kobs at 10000 uM GlcN6P; higher = faster cleavage; RNA array
In short: as §1

Variant	self-cleavage kobs at 160 uM GlcN6P (glucosamine-6-phosphate [1])	self-cleavage kobs at 640 uM GlcN6P (glucosamine-6-phosphate [2])	self-cleavage kobs at 2500 uM GlcN6P (glucosamine-6-phosphate [3])	self-cleavage kobs at 10000 uM GlcN6P (glucosamine-6-phosphate [4])
C50G G59U C70U	4.6e-05 ± 2.1e-05 s⁻¹	9.86e-05 ± 2.5e-05 s⁻¹	8.37e-05 ± 3.5e-05 s⁻¹	
G41U C50U	< 1e-05 s⁻¹	< 1e-05 s⁻¹	< 1e-05 s⁻¹	< 1e-05 s⁻¹
A39U G44C A64U	< 1e-05 s⁻¹	< 1e-05 s⁻¹		
U47G U49G G51A G62U	< 1e-05 s⁻¹	< 1e-05 s⁻¹	< 1e-05 s⁻¹	
A42C U54G	< 1e-05 s⁻¹			
G38A G51C	< 1e-05 s⁻¹			
G44C U54A C68U	< 1e-05 s⁻¹			
A42G U54A C67A	0.000942 ± 0.00031 s⁻¹	0.0023 ± 0.001 s⁻¹	0.00449 ± 0.0011 s⁻¹	
A42C A64U	< 1e-05 s⁻¹	< 1e-05 s⁻¹	< 1e-05 s⁻¹	< 1e-05 s⁻¹
C50G A64G	0.000518 ± 0.00017 s⁻¹	0.000105 ± 2.1e-05 s⁻¹		2.48e-05 ± 9.4e-06 s⁻¹
U2A G44U		0.000101 ± 1.5e-05 s⁻¹	0.000228 ± 6.3e-05 s⁻¹	
A1G A12U A64C		0.000103 ± 3.6e-05 s⁻¹	0.000485 ± 0.00019 s⁻¹	0.000643 ± 0.00015 s⁻¹
A36U U56C	< 1e-05 s⁻¹	< 1e-05 s⁻¹		< 1e-05 s⁻¹
C50G A52G C67U	0.000143 ± 5.1e-05 s⁻¹	0.000875 ± 0.00027 s⁻¹	7.71e-05 ± 2.8e-05 s⁻¹	
A48G G62C	< 1e-05 s⁻¹			< 1e-05 s⁻¹
G43A G60U	< 1e-05 s⁻¹	< 1e-05 s⁻¹		< 1e-05 s⁻¹
A52G C67U C71G	4.58e-05 ± 2.3e-05 s⁻¹	7.65e-05 ± 1.9e-05 s⁻¹	0.000162 ± 5.9e-05 s⁻¹	
A39C G51A C61A	< 1e-05 s⁻¹		< 1e-05 s⁻¹	
G38C A48G G60U	< 1e-05 s⁻¹	< 1e-05 s⁻¹	< 1e-05 s⁻¹	
G43A C58U	< 1e-05 s⁻¹	< 1e-05 s⁻¹		< 1e-05 s⁻¹
U54A U56C G66A C70U	7.54e-05 ± 1.5e-05 s⁻¹	0.000185 ± 4.1e-05 s⁻¹	0.000395 ± 9.4e-05 s⁻¹	
A42U A52C A53G	< 1e-05 s⁻¹			
G40U G44U C58G	< 1e-05 s⁻¹			
A39C U69A	< 1e-05 s⁻¹	< 1e-05 s⁻¹		
A6C G13A G63A		< 1e-05 s⁻¹	< 1e-05 s⁻¹	

Source: the supplement of paper PMC7125110
